Results as given in article PMC4149556.

Molecular target: T1, Rev (HIV-1) (UniProt P04618)
T1 sequence: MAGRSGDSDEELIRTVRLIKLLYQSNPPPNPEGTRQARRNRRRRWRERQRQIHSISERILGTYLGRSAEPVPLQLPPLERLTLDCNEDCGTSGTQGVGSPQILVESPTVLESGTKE
Experiment: EMSA
Conditions: native 4% PAGE; constant 32P-RRE RNA with 20, 40 or 80 ng Rev; buffer, salt, pH and temperature not given

**Q.** Which binding signal (% RNA shifted) does the source give for “GAGAAGAGUGGUGCAGAGAGAAAAAAGAGCAGUGGGAACAAUAGGAGCUAUGUUCCUUGGGUCCUUGGGAGCAGCAGGAAGCACUAUGGGCGCAGCGUCAAUAACGCUGACGGUACAGGCCAGACAAUUACUGUCUGGUAUAGUGCAACAGCAAAACAACUUGCUGAGGGCUAUUGAGGCGCAACAACAUCUGUUGCAACUCACAGUCUGGGGCAUCAAGCAGCUCCAGGCGAGAGUCCUGGCUGUGGAAAGAUACCUAAGGGAUCAACAGCUCCUAGGGAUUUGGGGUUGCUCUGGAAGACUCAUUUGCACCACUGCUGUGCCUUGGAAUG [RREWT (40Q-45L)]” here?
**A.** The binding signal (% RNA shifted) was 96.
